In patent US20220081480A1:

How the values were obtained:
FcRn = FcRn (UniProt P55899); assay: BLI (Octet), steady state
FCγRIIa (CD32a)_H131 = FCγRIIa (CD32a)_H131 (UniProt P12318); assay: BLI (Octet), steady state
FCγRI (CD64) = FCγRI (CD64) (UniProt P12314); assay: BLI (Octet), antibody on FAB2G tips, kinetic fit

Chain of FCγRIIa (CD32a)_H131 (P12318 36-218 limits assumed): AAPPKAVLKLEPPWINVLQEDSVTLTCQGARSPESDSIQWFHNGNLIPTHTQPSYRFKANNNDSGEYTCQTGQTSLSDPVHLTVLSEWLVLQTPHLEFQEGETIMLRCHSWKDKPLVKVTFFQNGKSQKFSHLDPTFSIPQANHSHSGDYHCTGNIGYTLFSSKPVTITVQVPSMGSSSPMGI

Substance | Kd (FcRn) [µM] | Kd (FCγRIIa (CD32a)_H131) [µM] | Kd (FCγRI (CD64)) [µM]
hu14.18 IgG2h (FN-AQ, K322A)-delK (antibody) | 0.825 | – | –
hu14.18-huIgG1-delK (antibody) | 0.62 | 0.67 | 0.0018
